For 1 molecule, aromatic hydroxylation activity, halogenation activity and classic peroxidase activity results are on record in patent US10301203B2, “Chloroperoxidase-catalyzed degradation of pharmaceutical pollutants in wastewater” (THE FLORIDA INTERNATIONAL UNIVERSITY BOARD OF TRUSTEES, priority 2017, dated 2019).

Holding throughout (format): biochemical
Common to all, as to conditions: CPO Rz=1.03

Series [1] can be described thus: Aromatic hydroxylation activity of CPO, naphthalene hydroxylation. As for the experimental part:
(§1) The halogenation activity of CPO used in this study was 4232 U·mL^−1 based on the standard MCD assay (Hager et al., 1966). The aromatic hydroxylation activity (3563 U·mL-1) of the enzyme was determined by monitoring the hydroxylation of naphthalene into I-naphthol (Kluge et al., 2007). The classic peroxidase activity of the enzyme determined using ABTS as the substrate was 3071 U·mL^−1 (Manoj et al., 2008).

Series [2] is described as follows: Standard MCD assay, halogenation activity of CPO. How it is done:
as §1

Series [3] is described as follows: Classic peroxidase activity of CPO, ABTS substrate. As for the experimental part: as §1

B1: CPO: heme-containing glycoprotein secreted by the fungus Caldariomyces fumago (protein, UniProt P04963 21-319, looked up)
Chloroperoxidase: QEPGSGIGYPYDNNTLPYVAPGPTDSRAPCPALNALANHGYIPHDGRAISRETLQNAFLNHMGIANSVIELALTNAFVVCEYVTGSDCGDSLVNLTLLAEPHAFEHDHSFSRKDYKQGVANSNDFIDNRNFDAETFQTSLDVVAGKTHFDYADMNEIRLQRESLSNELDFPGWFTESKPIQNVESGFIFALVSDFNLPDNDENPLVRIDWWKYWFTNESFPYHLGWHPPSPAREIEFVTSASSAVLAASVTSTPSSLPSGAIGPGAEAVPLSFASTMTPFLLATNAPYYAQDPTLGPND
Molecule B1 displayed an aromatic hydroxylation activity in series [1] of 3563 U·mL-1. The same molecule yielded a halogenation activity in series [2] of 4232 U·mL^−1. The molecule also returned a classic peroxidase activity in series [3] of 3071 U·mL^−1.
